Source: publication PMC5701133 (Scientific Reports, 2017)

Target: T1, BRD4 ET domain (residues M610-R676) (human, UniProt O60885 610-676, uniformly 15N-labelled for the NMR titrations)
T1 construct: human BRD4, extraterminal (ET) domain, residues 610-676; also called extraterminal (ET) domain of BRD4; source: E. coli BL21-CodonPlus (pRIL), purified (HiTrap IMAC, Superdex)
Experiment: ITC; MicroCal auto-ITC200, 20 °C, PBS pH 7.4 with 0.5 mM dithiothreitol; protein (0.5 mM) in the cell, peptide (7.5 mM) in the syringe; one set of sites model
Conditions: both partners purified

B1: JMJD6 peptide W85A (peptide, UniProt Q6NYC1 84-96, looked up)
peptide: KATLERLKRKYRN
notes: JMJD6 residues 84-96 with W85A; also called W85A peptide
- Kd: 675 ± 66 µM
